Results as given in patent US20240376151A1, “STAPLED PEPTIDES AND METHODS THEREOF” (FOG PHARMACEUTICALS, INC., priority 2022, published 2024).

Biological target: T1, RNF31 UBA domain (Homo sapiens, UniProt Q96EP0)
T1 construct: RNF31 UBA domain protein (residues 480-639) with N-terminal Thioredoxin-TEV-6×his-yBBr-3C tags; Thioredoxin (N, cleaved yes); made in house; host or cells: E. coli BL21 (DE3) pLysS
T1 sequence (Q96EP0 480-639): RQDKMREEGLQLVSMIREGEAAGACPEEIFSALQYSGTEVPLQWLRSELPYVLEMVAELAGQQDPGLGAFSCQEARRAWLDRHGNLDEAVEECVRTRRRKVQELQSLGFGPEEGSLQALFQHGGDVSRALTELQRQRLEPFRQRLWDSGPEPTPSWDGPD
Assay: Phage Library Screening with NGS, RNF31 UBA domain
Format: binding
Conditions: for Phage library screen NGS readout, Target Concentration 10 / Phage library screen NGS readout, Target Concentration 30 / Phage library screen NGS readout, Target Concentration 100 / Phage library screen NGS readout, Target Concentration 300 / Phage library screen NGS readout, Target Concentration 1000: RNF31 UBA domain cluster C46; for Phage library screen NGS readout, BLANK: cluster C46; for phage screen NGS read-out at Target Concentration 10 / phage screen NGS read-out at Target Concentration 30 / phage screen NGS read-out at Target Concentration 100 / phage screen NGS read-out at Target Concentration 300: no competitor

[1] = target concentration 1000, first column
[2] = target concentration 1000, second column

Sequence | phage screen NGS read-out at Target Concentration 10 | phage screen NGS read-out at Target Concentration 30 | phage screen NGS read-out at Target Concentration 100 | phage screen NGS read-out at Target Concentration 300 | other results
DPAQMFCYSAAVYCAAF |  |  |  |  | Phage library screen NGS readout, Target Concentration 10: 0; Phage library screen NGS readout, Target Concentration 30: 0; Phage library screen NGS readout, Target Concentration 100: 4; Phage library screen NGS readout, Target Concentration 300: 5; Phage library screen NGS readout, Target Concentration 1000 [1]: 8; Phage library screen NGS readout, Target Concentration 1000 [2]: 4; Phage library screen NGS readout, BLANK (column 1 of 5): 0; Phage library screen NGS readout, BLANK (column 2 of 5): 0; Phage library screen NGS readout, BLANK (column 3 of 5): 0; Phage library screen NGS readout, BLANK (column 4 of 5): 0; Phage library screen NGS readout, BLANK (column 5 of 5): 0
DPARWVCELAAQNCLYR | 0 | 1 | 1 | 1 | 
DPAFSACVYAAYMCNQD | 0 | 0 | 1 | 4 | 
DPAQLNCLSAAMYCALY |  |  |  |  | Phage library screen NGS readout, Target Concentration 10: 2; Phage library screen NGS readout, Target Concentration 30: 19; Phage library screen NGS readout, Target Concentration 100: 49; Phage library screen NGS readout, Target Concentration 300: 95; Phage library screen NGS readout, Target Concentration 1000 [1]: 104; Phage library screen NGS readout, Target Concentration 1000 [2]: 111; Phage library screen NGS readout, BLANK (column 1 of 5): 0; Phage library screen NGS readout, BLANK (column 2 of 5): 0; Phage library screen NGS readout, BLANK (column 3 of 5): 1; Phage library screen NGS readout, BLANK (column 4 of 5): 0; Phage library screen NGS readout, BLANK (column 5 of 5): 0
DPAFSMCVYAAVTCVST | 0 | 0 | 0 | 4 | 
DPAFYECVYAAVTCTQF | 0 | 0 | 0 | 2 | 
DPAMIQCLSAAVYCVHY | 1 | 3 | 8 |  | 
DPAAYLCDMAAHNCLYL | 1 | 0 | 0 | 0 | 

More lines, main results first:

phage screen NGS read-out at Target Concentration 10 | phage screen NGS read-out at Target Concentration 30 | phage screen NGS read-out at Target Concentration 100 | phage screen NGS read-out at Target Concentration 300 | Sequence | other results
0 | 0 | 0 | 0 | DPASIICMLAADNCLYE | 
2 | 0 | 4 | 19 | DPAHHHCQAAAAWCWVM | 
1 | 2 | 3 | 9 | DPAFSECVYAAFSCSWI | 
0 | 0 | 1 | 3 | DPATQHCLAAAMWCHLI | 
0 | 0 | 0 | 1 | DPATLVCTMAANNCIYR | 
1 | 0 | 2 | 20 | DPAFSQCVYAAFFCREI | 
